Experimental findings from patent US20240360477 are described below.

In the series the test system is MCP-TGIRT (GsI-IIC RT) fusion. Put plainly: cell_activity. The settings on record: control used for normalization, HEK293T.

As for “nanoluciferase mRNA with MS2 loops hybridized to DNA primer”, the activity (relative to TGIRT) is 1.
